The results in this text go back to PMC5142333, “The topology, structure and PE interaction of LITAF underpin a Charcot-Marie-Tooth disease type 1C” (BMC Biology, 2016).

This series deals with the molecule itself. Nature of the series: SEC; Superdex 200 10/300 GL; recombinant LITAF constructs; wild type LITAF kept in detergent. On the technique in general: In gel filtration, larger molecules generally elute earlier.

B1: wild type LITAF (full length, recombinant) (natural protein, human, UniProt Q99732 1-161, looked up)
chain: MSVPGPYQAATGPSSAPSAPPSYEETVAVNSYYPTPPAPMPGPTTGLVTGPDGKGMNPPSYYTQPAPIPNNNPITVQTVYVQHPITFLDRPIQMCCPSCNKMIVSQLSYNAGALTWLSCGSLCLLGCIAGCCFIPFCVDALQDVDHYCPNCRALLGTYKRL
notes: Lipopolysaccharide-induced tumour necrosis factor-alpha factor (LITAF, SIMPLE), human, full length wild type; Kept soluble with detergent (1% DDM or 1% FC12 at lysis, 0.04% DDM or 0.125% FC12 afterwards); also called LITAF WT; full length wild type LITAF protein; source: C43(DE3) BL21 E. coli, purified in detergent (Ni-NTA, ULP1 cleavage, SEC; DDM or FC12); not shown: His6, N-terminal, cleaved; …
As for B1, the binding result is on record as “binds”.
